Laboratory results reported in article PMC3093405, “A Motif Unique to the Human Dead-Box Protein DDX3 Is Important for Nucleic Acid Binding, ATP Hydrolysis, RNA/DNA Unwinding and HIV-1 Replication”.

Target: DDX3wt (Homo sapiens, UniProt O00571 1-662)
Assay: EMSA; no ATP; EMSA: on ice, protein buffer 25 mM Tris-HCl pH 7.5, 0.5 mM DTT, 20% glycerol, 100 mM NaCl plus 5x binding buffer (10% glycerol, 5 mM MgCl2, 2.5 mM EDTA pH 8, 50 mM NaCl, 50 mM Tris-HCl pH 7.5, 10 mM DTT), 0.05 pmol oligo. Filter binding: 10 mM Hepes pH 7.2, 100 mM KCl, 3 mM MgCl2, 5% glycerol, 1 mM DTT, 50 µg/ml salmon sperm DNA, 50 nM dsDNA, 24°C
Details: protein: recombinant; tags: N-terminal ~3 kDa peptide with 6xHis; C-terminal KQGCFGG; label: 5' 6-FAM

DDX3wt, sequence (O00571 whole entry): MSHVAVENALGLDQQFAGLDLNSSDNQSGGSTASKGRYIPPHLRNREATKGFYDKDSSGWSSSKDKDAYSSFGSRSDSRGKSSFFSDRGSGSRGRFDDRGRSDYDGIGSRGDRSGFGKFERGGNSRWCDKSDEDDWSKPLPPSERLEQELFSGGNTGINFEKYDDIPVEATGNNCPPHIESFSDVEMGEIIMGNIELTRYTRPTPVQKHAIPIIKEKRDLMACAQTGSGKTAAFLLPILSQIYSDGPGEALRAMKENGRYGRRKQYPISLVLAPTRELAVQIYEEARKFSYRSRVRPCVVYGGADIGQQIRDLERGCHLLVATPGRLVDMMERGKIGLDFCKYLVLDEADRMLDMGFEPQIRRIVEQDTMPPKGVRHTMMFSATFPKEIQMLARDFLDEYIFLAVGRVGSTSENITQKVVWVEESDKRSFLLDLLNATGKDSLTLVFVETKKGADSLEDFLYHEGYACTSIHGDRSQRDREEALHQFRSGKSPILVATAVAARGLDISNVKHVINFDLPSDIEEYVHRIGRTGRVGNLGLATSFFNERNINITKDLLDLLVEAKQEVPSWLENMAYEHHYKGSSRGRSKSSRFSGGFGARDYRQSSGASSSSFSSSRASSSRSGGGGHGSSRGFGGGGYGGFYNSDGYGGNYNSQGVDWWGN

Row | Binder | binding result
1 | CTCAACTCAACCCTTCAT (ssDNA) [ssDNA (6-FAM d18mer)] | binds
2 | CCCAAGAACCCAAGGAAC (ssRNA) [ssRNA (6-FAM r18mer)] | binds
